Results taken from patent publication US11541125B2, “Noncrushable pill formulations” (THE REGENTS OF THE UNIVERSITY OF CALIFORNIA, priority 2016, dated 2023).
Read-outs that look alike come from different tables or passages of the source. Square brackets hold non-standard residues; d marks the D form. Side chains are listed from the residue outwards. Peptide text beside a SMILES is read from it. * marks the point of attachment. ξ: configuration not given here. X2 = CN(CCN*)C(=S)Oc1ccc2c3c1O[C@H]1C(=O)CC[C@@]4(O)[C@@H](C2)N(CC2CC2)CC[C@]314; X1 = CN(CCN*)C(=O)Oc1ccc2c3c1OC1C(=O)CCC4(O)C(C2)N(CC2CC2)CCC314; X4 = CN(CCN*)C(=O)Oc1ccc([N+](=O)[O-])cc1; Trt = c1ccc(C(c2ccccc2)(c2ccccc2)*)cc1; ξF = NC(Cc1ccccc1)C(=O)O; Boc = CC(C)(C)OC(=O)*; ξK = NCCCCC(N)C(=O)O; ξC = NC(CS)C(=O)O; ξA = CC(N)C(=O)O

Columns and labels:
[1] = system: trypsin and/or chymotrypsin; experiment: pNA release assay (absorbance at 405 nm); assay type: biochemical; conditions: 2 mM, incubated with trypsin and/or chymotrypsin, 90 minutes, 37° C.
Experimental: A stock solution of the CAAK(F)-diamino-pNA was prepared in dimethyl sulfoxide (DMSO) to produce a 16.0 mg/mL solution. A 7.5 mg/mL stock solution of the trypsin was prepared in 50 mM NH4HCO3 buffer (pH=8.05). A 7.5 mg/mL stock solution of chymotrypsin was prepared in 50 mM NH4HCO3 buffer (pH=8.05).
A 96 well plate was used for monitoring the solutions at 405 nm using a plate reader. 20 μL of the peptide was combined with 62.0/66.6 μL of no enzyme, trypsin only, chymotrypsin only, or with both enzymes respectively. All solutions were diluted to a total volume of 200 μL using 50 mM NH4HCO3 (pH=8.05). Blanks were prepared by combining the enzymes with DMSO/buffer and their absorbances were subtracted from the cleavage conditions. Additionally, the residual signal from the peptide in the presence of no enzymes was also used as a blank and subtracted out from enzymatic conditions.

[2] = Experimental: In order to determine the stability of the enzymatically cleavable covalent linkage between the dual-enzyme responsive peptide and Naltrexone, the drug conjugates (below) were synthesized and subjected to a range of different pH buffers that were chosen to emulate the pH range of typical household chemicals (pH 2-10).
The stabilities of these linkages were assessed by HPLC by monitoring the relative amount of Naltrexone versus the intact peptide-Naltrexone conjugate.

[3] = conjugate sample, no pH buffer named

Row | SMILES | theoretical pNA released [1] [%] | stability over the entire pH range ([2]; HPLC, pH buffers) | Percent Degradation, t = 0.5 hr [2, 3] [%] | Percent Degradation, t = 24 hr [2, 3] [%] | Percent Degradation, t = 0.5 hr ([2]; in pH 2) [%] | Percent Degradation, t = 0.5 hr ([2]; in pH 4) [%] | Percent Degradation, t = 0.5 hr ([2]; in pH 7) [%] | stability of the linkage relative to the other linkers ([2]; HPLC, Naltrexone versus intact conjugate, pH buffers) | Percent Degradation, t = 24 hr ([2]; in pH 2) [%]
1 | CC(=O)NC(CS)C(=O)NC(C)C(=O)NC(C)C(=O)NC(CCCCNC(=O)C(N)Cc1ccccc1)C(=O)NCCN(C)C(=O)Oc1ccc([N+](=O)[O-])cc1 (centres unmarked) [CAAK(F)-diamino-pNA] (Ac-CAAK(Phe)-X4; configuration not given here) | 55 |  |  |  |  |  |  |  | 
2 | CC(=O)NC(CSC(c1ccccc1)(c1ccccc1)c1ccccc1)C(=O)NC(C)C(=O)NC(C)C(=O)NC(CCCCNC(=O)C(Cc1ccccc1)NC(=O)OC(C)(C)C)C(=O)NCCN(C)C(=O)Oc1ccc2c3c1OC1C(=O)CCC4(O)C(C2)N(CC2CC2)CCC314 (centres unmarked) [NPC] (Ac-C(Trt)AAK([Phe-Boc])-X1; configuration not given here) |  | very good stability | 0 | 0 | 6.00 | 3.50 | 1.50 |  | 
3 | CC(=O)NC(CS)C(=O)NC(C)C(=O)NC(C)C(=O)NC(CCCCNC(=O)C(N)Cc1ccccc1)C(=O)NCCN(C)C(=S)Oc1ccc2c3c1O[C@H]1C(=O)CC[C@@]4(O)[C@@H](C2)N(CC2CC2)CC[C@]314 (some centres unmarked) [NPT] (Ac-[ξC][ξA][ξA][ξK](ξF)-X2) |  |  | 0.51 | 2.90 |  |  |  | more stable than the carbamate linker | 4.10
